{"source": "paper PMC5934441", "about": "(2018)", "binders": {"B1": {"name": "mouse Ccl27 (ligand)", "chain": "LPLPSSTSCCTQLYRQPLPSRLLRRIVHMELQEADGDCHLQAVVLHLARRSVCVHPQNRSLARWLERQGKRLQGTVPSLNLVLQKKMYSHPQQQN"}}, "key": {"[1]": {"target": "T1, recombinant ECTV CrmD (cytokine response modifier D), C-terminally tagged with V5 and 6xHis (ectromelia virus (ECTV))", "test": "SPR"}, "[2]": {"target": "T1, recombinant ECTV CrmD (cytokine …)", "test": "SPR", "remark": "listed apart in the source"}}, "data": [{"binder": "B1", "values": [{"measurement": "Kd", "setting": "[1]", "result": 5.41, "unit": "nM"}, {"measurement": "koff", "setting": "[2]", "result": 0.00372, "unit": "s⁻¹"}]}]}
